# What was measured:
# [1] = target: Cdk5 protein alone (recombinant) (UniProt Q00535 1-292); assay: MST
# [2] = target: T1, recombinant Cdk5/p25 complex (UniProt Q00535 1-292; Q15078 99-307); assay: MST
# [3] = target: T1, recombinant Cdk5/p25 complex; assay: BLI
binder,measurement,setting,value
ARAFGIPVRCYS [Cdk5i peptide],Kd,[1],15700 nM
same,Kd,[2],170 nM
same,Kd,[3],220 nM

# Source: article PMC10120002 (Proceedings of the National Academy of Sciences of the …, 2023)
